This note sets out measurements from article PMC3292765 (2012).

This test has as its target Rac1 (Homo sapiens, UniProt P63000). Put plainly: microscale thermophoresis.

B1: p67phox 1-212 (protein)
chain: MSLVEAISLWNEGVLAADKKDWKGALDAFSAVQDPHSRICFNIGCMYTILKNMTEAEKAFTRSINRDKHLAVAYFQRGMLYYQTEKYDLAIKDLKEALIQLRGNQLIDYKILGLQFKLFACEVLYNIAFMYAKKEEWKKAEEQLALATSMKSEPRHSKIDKAMECVWKQKLYEPVVIPVGKLFRPNERQVAQLAKKDYLGKATVVASVVDQD
The term Kd denotes the constant that tells how readily two partners part at equilibrium. Consider B1, for which the equilibrium dissociation constant (Kd) was roughly 40 nM.
